The values that follow are results of earlier work, collected in publication PMC8461181.

In general, Kd refers to the constant that tells how readily two partners part at equilibrium.

The data set has as its target GnIH (Coturnix japonica) (UniProt Q9DGD4). Kind of data set: Scatchard analysis.

For GPR147 (from UniProt Q9GZQ6), the Kd was 752 pM.
